Laboratory results: PMC6802964 (2019)

B1: Cam1 (protein)
chain: not shown
B2: Cam1 (wild type, amino-terminally acetylated fission yeast calmodulin) (natural protein)
chain: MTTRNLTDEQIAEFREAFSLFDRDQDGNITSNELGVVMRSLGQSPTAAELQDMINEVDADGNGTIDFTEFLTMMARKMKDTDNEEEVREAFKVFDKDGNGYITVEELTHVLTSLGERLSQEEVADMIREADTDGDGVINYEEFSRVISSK
modifications: amino-terminally (Nt) acetylated
B3: Cam2 (protein)
chain: MPASKEQTDEMKEAFVLYDIDKDGLIPTSHVGSVLRSLGINVTDAELAKLSNELGDAIDEKKFMSFVSNKLRETESEEEYIKAFRVFDKDNSGYIETAKFADYMKTLGEKLSDNEVQLMVQEADPTNSGSFDYYDFVQRIMAK
B4: Cam2 (calcium-insensitive calmodulin-like protein) (natural protein)
chain: MPASKEQTDEMKEAFVLYDIDKDGLIPTSHVGSVLRSLGINVTDAELAKLSNELGDAIDEKKFMSFVSNKLRETESEEEYIKAFRVFDKDNSGYIETAKFADYMKTLGEKLSDNEVQLMVQEADPTNSGSFDYYDFVQRIMAK

How the values were obtained:
[1] = biological target: T1, Myo1 IQ12 (Schizosaccharomyces pombe, UniProt Q9Y7Z8); test: FRET
T1 chain: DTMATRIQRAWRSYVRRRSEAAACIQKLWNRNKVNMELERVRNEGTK

[2] = biological target: T2, CyPet–Myo1^IQ12–YPet FRET reporter protein (S. pombe); test: FRET; first site (Kd1)
T2 chain: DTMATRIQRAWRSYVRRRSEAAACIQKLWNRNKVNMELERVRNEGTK

[3] = biological target: T3, CyPet–Myo1^IQ12S742D–YPet FRET reporter protein (S742D phosphomimetic) (S. pombe); test: FRET; first site (Kd1)
T3 chain: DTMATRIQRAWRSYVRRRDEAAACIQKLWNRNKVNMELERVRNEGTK

[4] = biological target: T4, CyPet–Myo1^IQ1–YPet FRET reporter protein (S. pombe); test: FRET
T4 chain: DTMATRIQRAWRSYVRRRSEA

[5] = biological target: T3, CyPet–Myo1^IQ12S742D–YPet FRET reporter …; test: FRET; second site (Kd2)
[6] = biological target: T3, CyPet–Myo1^IQ12S742D–YPet FRET reporter …; test: FRET

Row | Kd [1] | Kd [2] | also measured | Binder
1 | 680 nM |  |  | B1
2 |  | 40 nM | Kd [3]: 90 nM; Kd [4]: 60 nM; Kd [5]: 540 nM | B2
3 | 1100 nM |  |  | B3
4 |  | 20 nM | Kd [6]: 250 nM | B4
